Data as given in patent US20250361274A1, “PEPTIDE AND PEPTIDE-CONTAINING AGENT” (PEPTIDREAM INC., priority 2022, published 2025).
Numbered stars: 1 amine (or outer) side, 2 acyl side, 3 side chain; on linkers, the order of the positions; unused ones are H or OH. Bridge positions count the residues as written; N and C are the ends. Square brackets hold non-standard residues; d marks the D form. Ends that are not written are not given here. Peptide text beside a SMILES is read from it. KCOpipzaa = N6-(4-(carboxymethyl)piperazine-1-carbonyl)-L-lysine, O=C(NCCCC[C@H](N[*:1])C(=O)[*:2])N1CCN(CC(=O)[*:3])CC1; F3aa = (S)-2-amino-3-[3-(carboxymethyl)phenyl]propanoic acid, O=C([C@H](Cc1cccc(CC(=O)[*:3])c1)N[*:1])[*:2]; 3Pal(6-Ph) = N[C@@H](Cc1ccc(-c2ccccc2)nc1)C(=O)O; Phe(4-COOH) = N[C@@H](Cc1ccc(C(=O)O)cc1)C(=O)O; NMePhe(4-Me) = CN[C@@H](Cc1ccc(C)cc1)C(=O)O; Bip = N[C@@H](Cc1ccc(-c2ccccc2)cc1)C(=O)O; Phe(4-F) = N[C@@H](Cc1ccc(F)cc1)C(=O)O; Ala(4-THP) = N[C@@H](CC1CCOCC1)C(=O)O; cisHyp = O=C(O)[C@@H]1C[C@H](O)CN1; NMeF = CN[C@@H](Cc1ccccc1)C(=O)O; hCit = NC(=O)NCCCC[C@H](N)C(=O)O; 4Pal = N[C@@H](Cc1ccncc1)C(=O)O; Aad = N[C@@H](CCCC(=O)O)C(=O)O; Cha = N[C@@H](CC1CCCCC1)C(=O)O; βAla = NCCC(=O)O

Target: T1, BMP4 (Homo sapiens, UniProt P12644)
T1 sequence (P12644 293-408): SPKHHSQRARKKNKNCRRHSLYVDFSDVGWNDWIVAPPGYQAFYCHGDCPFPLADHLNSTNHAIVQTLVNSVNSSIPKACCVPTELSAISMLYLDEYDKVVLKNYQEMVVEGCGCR
Assay: BMP4 signal transduction inhibitory activity: SMAD1 phosphorylation by BMP4 stimulus, AlphaLISA SureFire, A549 cells
Assay type: cell-based
Settings: A549 cells, SMAD1 phosphorylation; peptides of Synthesis 2; peptide 0.02, 0.2, 2 nM
Protocol: In the present Example, a BMP4 signal transduction inhibitory activity of each peptide consisting of an amino acid sequence set forth in any of SEQ ID NOs: 5 to 240 and 243 to 421 synthesized in Example 10 was verified by phosphorylation of SMAD1 caused by BMP4 stimulus. A549 cells were cultured in MEM (Thermo Fisher Scientific) containing 10% FBS (Thermo Fisher Scientific), 1×Non-essential amino acids (Thermo Fisher Scientific), and 50 μg/mL Gentamicin. After TrypLE (Gibco) was used to peel the cells, seeding was performed in a 96-well plate for adhesion cells so that the number of cells would be 20,000 per well, followed by culturing for 48 hours. After the cells were cultured as described above, the culture medium was replaced with a peptide solution or recombinant Human Noggin Protein (R&D) solution as a positive control diluted to various concentrations in a nutrition-starved culture medium containing 0.1% BSA (Sigma) instead of FBS Thirty minutes after culturing, […], to stimulate it for 60 minutes. The culture medium was removed and the cells were lysed with Lysis Buffer provided with AlphaLISA (registered trademark) SureFire (registered trademark) Ultra SMAD1 (p-[…]/465) Assay kit (PerkinElmer). According to the protocol of the kit, a signal was detected using SpectraMax (registered trademark) Paradigm (registered trademark) multimode microplate reader (Molecular Devices). The obtained signal was analysed using GraphPad Prism (GraphPad Software). The % inhibition was calculated by considering non-stimulation as 100% inhibition and BMP stimulation only as 0% inhibition. Regarding SEQ ID NOs: 5 to 187, the concentrations of the peptides synthesized in the same manner as in Example 2 (shown as 2 in the row of Synthesis) were 0.02 nM, 0.2 nM, and 2 nM, and the concentrations of the peptides synthesized in the same manner as in Example 1 (shown as 1 in the row of Synthesis) were 0.2 nM, 2 nM, and 20 nM. The evaluation results were based on the results of evaluation using the peptides synthesized in the same manner as in Example 2. […] Regarding SEQ ID NOs: 243 to 321, the test was performed at the concentrations described in Table 6. […] Regarding SEQ ID NOs: 322 to 421, the test was performed at the concentrations described in Table 7. […] The evaluation tests of the signal transduction inhibitory activities of SEQ ID NOs: 87, 177, and 181 are as follows. Specifically, the inhibitory activity of BMP4 was evaluated in the same manner as in Example 11 that used A549 cells. Eight concentrations of the peptides were used at a common ratio of 1/3 starting from 2 nM. The inhibitory activity of BMP7 was evaluated in the same manner as in Example 12. Eight concentrations of the peptides were used at a common ratio of 1/3 starting from 100 nM. Note that recombinant Human Noggin Protein (R&D) as a positive control was used at the same concentration as that of the peptide. […] The inhibitory activity of BMP7 was evaluated using eight concentrations of the peptides at a common ratio of 1/3 starting from 1,000 nM in the same manner as in Example 12.

Row | Molecule | aLISA BMP4
1 | 11 (ARVYVDRFKYPFYFFSCG; not fully specified; MOD_RES 8 F represents (S)-3-(1,1'-Biphenyl-4-yl)-2-aminopropanoic acid(Bph); MOD_RES 12 F represents (S)-3-(1,1'-Biphenyl-4-yl)-2-aminopropanoic acid(Bph); MOD_RES 14 F represents (S)-4-(2-amino-2-carboxyethyl)benzoic acid(F4COO); MOD_RES 15 F represents (S)-4-(2-amino-2-carboxyethyl)benzoic acid(F4COO)) [compound 11] | A (showed an inhibitory activity of 50% or more in a zone to which the peptide was added to in an amount of 0.2 nM)

Same assay, conditions: class of inhibition of SMAD1 phosphorylation by BMP4 stimulus, AlphaLISA, A549 cells

Row | Molecule | aLISA BMP4
2 | 163 ({CH2CO}-ERVYVDR[Bip]SYY[Bip]Y[Phe(4-COOH)][Phe(4-COOH)]SC[βAla][dE]-OH; thioether N-17; not fully specified) [compound 163] | A (showed an inhibitory activity of 50% or more in a zone to which the peptide was added to in an amount of 0.2 nM)
3 | 164 ({CH2CO}-ERVYVDR[Bip]SYV[Bip]Y[Phe(4-COOH)][Phe(4-COOH)]HC[βAla][dE]-OH; thioether N-17; not fully specified) [compound 164] | A (showed an inhibitory activity of 50% or more in a zone to which the peptide was added to in an amount of 0.2 nM)
4 | 169 ({CH2CO}-E[hCit]VY[Ala(4-THP)]DR[Bip]SYV[Bip]Y[Phe(4-COOH)][Phe(4-COOH)]HC[βAla][dE]-OH; thioether N-17; not fully specified) [compound 169] | C (showed an inhibitory activity of less than 50% in 0.2 nM-addition zone and showed an inhibitory activity of 50% or more in 2 nM-addition zone were defined as B or C)
5 | 178 ({CH2CO}-ERV[Phe(4-COOH)][Ala(4-THP)]DR[Bip]PYV[Bip]Y[Phe(4-COOH)][Phe(4-COOH)]SC[βAla][dE]-OH; thioether N-17; not fully specified) [compound 178] | A (showed an inhibitory activity of 50% or more in a zone to which the peptide was added to in an amount of 0.2 nM)
6 | 179 ({CH2CO}-ERV[Phe(4-COOH)][Ala(4-THP)][KCOpipzaa]R[Bip]PY[F3aa][Bip]Y[Phe(4-COOH)][Phe(4-COOH)]SC[βAla][dE]-OH; thioether N-17; not fully specified) [compound 179] | C (showed an inhibitory activity of less than 50% in 0.2 nM-addition zone and showed an inhibitory activity of 50% or more in 2 nM-addition zone were defined as B or C)
7 | 180 ({CH2CO}-ERV[Phe(4-COOH)][Ala(4-THP)][KCOpipzaa]R[Bip]PY[cisHyp][Bip]Y[Phe(4-COOH)][Phe(4-COOH)]SC[βAla][dE]-OH; thioether N-17; not fully specified) [compound 180] | A (showed an inhibitory activity of 50% or more in a zone to which the peptide was added to in an amount of 0.2 nM)
8 | 182 ({CH2CO}-ERVY[Ala(4-THP)][KCOpipzaa]R[Bip]PY[F3aa][Bip]Y[Phe(4-COOH)][Phe(4-COOH)]SC[βAla][dE]-OH; thioether N-17; not fully specified) [compound 182] | A (showed an inhibitory activity of 50% or more in a zone to which the peptide was added to in an amount of 0.2 nM)
9 | 183 ({CH2CO}-ERVY[Ala(4-THP)][KCOpipzaa]R[Bip]PY[cisHyp][Bip]Y[Phe(4-COOH)][Phe(4-COOH)]SC[βAla][dE]-OH; thioether N-17; not fully specified) [compound 183] | A (showed an inhibitory activity of 50% or more in a zone to which the peptide was added to in an amount of 0.2 nM)
10 | 184 ({CH2CO}-ERVY[Ala(4-THP)][KCOpipzaa]R[Bip]PYP[Bip]Y[Phe(4-COOH)][Phe(4-COOH)]SC[βAla][dE]; thioether N-17) [compound 184] | A (showed an inhibitory activity of 50% or more in a zone to which the peptide was added to in an amount of 0.2 nM)
11 | 185 ({CH2CO}-E[KCOpipzaa]V[Phe(4-COOH)][Ala(4-THP)]DR[Bip]PY[F3aa][Bip][Phe(4-F)][Phe(4-COOH)][4Pal]SC[βAla][dE]; thioether N-17) [compound 185] | C (showed an inhibitory activity of less than 50% in 0.2 nM-addition zone and showed an inhibitory activity of 50% or more in 2 nM-addition zone were defined as B or C)
12 | 186 ({CH2CO}-E[KCOpipzaa]V[Phe(4-COOH)][Ala(4-THP)]DR[Bip]PY[cisHyp][Bip][Phe(4-F)][Phe(4-COOH)][4Pal]SC[βAla][dE]; thioether N-17) [compound 186] | A (showed an inhibitory activity of 50% or more in a zone to which the peptide was added to in an amount of 0.2 nM)
13 | 187 ({CH2CO}-E[KCOpipzaa]V[Phe(4-COOH)][Ala(4-THP)]DR[Bip]PYP[Bip][Phe(4-F)][Phe(4-COOH)][4Pal]SC[βAla][dE]; thioether N-17) [compound 187] | C (showed an inhibitory activity of less than 50% in 0.2 nM-addition zone and showed an inhibitory activity of 50% or more in 2 nM-addition zone were defined as B or C)

Target: T2, BMP7 (Homo sapiens, UniProt P18075)
T2 sequence (P18075 293-431): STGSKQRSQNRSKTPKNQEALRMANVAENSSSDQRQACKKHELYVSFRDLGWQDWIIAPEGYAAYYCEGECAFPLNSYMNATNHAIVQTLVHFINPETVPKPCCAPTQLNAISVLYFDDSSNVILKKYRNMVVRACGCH
Assay: BMP7 signal transduction inhibitory activity: SMAD1 phosphorylation by BMP7 stimulus, A549 cells
Assay type: cell-based
Settings: A549 cells, 10 nM BMP7; peptides of Synthesis 2; peptide 1, 10, 100 nM
Protocol: In the present Example, BMP7 signal transduction inhibitory activity of each peptide consisting of an amino acid sequence set forth in any of SEQ ID NOs: 5 to 240 and 243 to 421 synthesized in Example 10 was verified by phosphorylation of SMAD1 caused by BMP7 stimulus. The evaluation was performed using 10 nM of BMP7 instead of BMP 4. Regarding SEQ ID NOs: 5 to 240, the concentrations of the peptides synthesized in the same manner as in Example 2 (shown as 2 in the row of Synthesis) were 1 nM, 10 nM, and 100 nM, and the concentrations of the peptides synthesized in the same manner as in Example 1 (shown as 1 in the row of Synthesis) were 10 nM, 100 nM, and 1,000 nM, similarly with Example 11. […] Regarding SEQ ID NOs: 243 to 273 and SEQ ID NOs: 299 to 321, the test was performed at the concentrations (10, 100, 1,000 nM) described in Table 6. […] Regarding SEQ ID NOs: 274 to 298, the test was performed at the concentrations (100, 300, 1,000 nM) described in Table 6. […] Regarding SEQ ID NOs: 322 to 370 and SEQ ID NOs: 393 to 421, the test was performed at the concentrations (1, 10, 100 nM). […] Regarding SEQ ID NOs: 371 to 391, the test was performed at the concentrations (10, 30, 90 nM). […] The evaluation tests of the signal transduction inhibitory activities of SEQ ID NOs: 87, 177, and 181 are as follows. Specifically, the inhibitory activity of BMP4 was evaluated in the same manner as in Example 11 that used A549 cells. Eight concentrations of the peptides were used at a common ratio of 1/3 starting from 2 nM. The inhibitory activity of BMP7 was evaluated in the same manner as in Example 12. Eight concentrations of the peptides were used at a common ratio of 1/3 starting from 100 nM. Note that recombinant Human Noggin Protein (R&D) as a positive control was used at the same concentration as that of the peptide. […] The inhibitory activity of BMP7 was evaluated using eight concentrations of the peptides at a common ratio of 1/3 starting from 1,000 nM in the same manner as in Example 12.

Row | Molecule | aLISA BMP7
14 | 11 (ARVYVDRFKYPFYFFSCG; not fully specified; MOD_RES 8 F represents (S)-3-(1,1'-Biphenyl-4-yl)-2-aminopropanoic acid(Bph); MOD_RES 12 F represents (S)-3-(1,1'-Biphenyl-4-yl)-2-aminopropanoic acid(Bph); MOD_RES 14 F represents (S)-4-(2-amino-2-carboxyethyl)benzoic acid(F4COO); MOD_RES 15 F represents (S)-4-(2-amino-2-carboxyethyl)benzoic acid(F4COO)) [compound 11] | C (showed less than 50% of inhibitory activity in 10 nM-addition zone and showed 50% or more of inhibitory activity in 100 nM-addition zone)

Same assay, conditions: Table 2-2; 277 from 1,000 nM (1/3), 417 from 300 nM (1/4)

Row | Molecule | IC50
15 | Cc1ccc(C[C@H]2C(=O)N[C@@H](CC(C)C)C(=O)N3C[C@@H](O)C[C@H]3C(=O)N[C@H](C(=O)NCCC(=O)N[C@H](CCC(=O)O)C(=O)O)CSCC(=O)N[C@@H](Cc3ccc(F)cc3)C(=O)NCC(=O)N(C)[C@@H](Cc3ccccc3)C(=O)NCC(=O)N[C@@H](Cc3ccc(-c4ccccc4)nc3)C(=O)NCC(=O)N[C@@H](CC(=O)O)C(=O)N[C@@H](CCC(=O)O)C(=O)N[C@@H](CC3CCCCC3)C(=O)N[C@@H](CCCC(=O)O)C(=O)N2C)cc1 [Peptide 417] ({CH2CO}-[Phe(4-F)]G[NMeF]G[3Pal(6-Ph)]GDE[Cha][Aad][NMePhe(4-Me)]L[cisHyp]C[βAla][dE]-OH; thioether N-14) | 15.6 nM
